The results in this text go back to paper PMC9385667, “Structural basis for proton coupled cystine transport by cystinosin” (Nature Communications, 2022).

Series [1] addresses T1, Arabidopsis thaliana cystinosin (plant cystinosin) (Arabidopsis thaliana, UniProt P57758).
T1 construct: gene At5g40670; codon-optimised gene expressed in Saccharomyces cerevisiae BJ5460 as cleavable C-terminal GFP-His fusion; tag cut with TEV protease; DDM-purified; reconstituted in POPE:POPG liposomes for transport
T1 sequence (P57758 1-270): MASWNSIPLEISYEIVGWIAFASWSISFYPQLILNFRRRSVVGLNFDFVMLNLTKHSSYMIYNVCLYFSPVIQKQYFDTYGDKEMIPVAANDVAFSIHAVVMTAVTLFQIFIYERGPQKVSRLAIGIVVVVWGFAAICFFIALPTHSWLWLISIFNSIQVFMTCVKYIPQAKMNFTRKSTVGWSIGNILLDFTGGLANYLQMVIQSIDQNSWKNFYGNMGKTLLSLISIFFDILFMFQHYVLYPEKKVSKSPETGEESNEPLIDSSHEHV
Put plainly: pyranine proton-flux transport assay in proteoliposomes. It is filed as biochemical. As to conditions: 500 μM substrate, pH 7.2, 25 °C, valinomycin / K+ gradient.

For series [2], the target named is T2, Arabidopsis thaliana cystinosin (plant cystinosin) (Arabidopsis thaliana, UniProt P57758, P169G).
T2 construct: gene At5g40670; codon-optimised gene expressed in Saccharomyces cerevisiae BJ5460 as cleavable C-terminal GFP-His fusion; tag cut with TEV protease; DDM-purified; reconstituted in POPE:POPG liposomes for transport
T2 sequence (P57758 1-270 P169G): T1 sequence (P57758 1-270) with P169G
Put plainly: nanoDSF tryptophan fluorescence quench, DDM-purified protein. In kind it is binding. As to conditions: 3.2 mM L-cystine, 10 μM protein, pH 7.2, 25 °C. (DSF heats the sample and reads unfolding from a dye or from intrinsic fluorescence.)

Series [3] deals with T3, Arabidopsis thaliana cystinosin (plant cystinosin) (Arabidopsis thaliana, UniProt P57758, W24F).
T3 construct: gene At5g40670; codon-optimised gene expressed in Saccharomyces cerevisiae BJ5460 as cleavable C-terminal GFP-His fusion; tag cut with TEV protease; DDM-purified; reconstituted in POPE:POPG liposomes for transport
T3 sequence (P57758 1-270 W24F): T1 sequence (P57758 1-270) with W24F
Described as above. It is filed as binding. As to conditions: 3.2 mM L-cystine, 10 μM protein, pH 7.2, 25 °C.

Series [4] concerns the target T4, Arabidopsis thaliana cystinosin (plant cystinosin) (Arabidopsis thaliana, UniProt P57758, S228A).
T4 construct: gene At5g40670; codon-optimised gene expressed in Saccharomyces cerevisiae BJ5460 as cleavable C-terminal GFP-His fusion; tag cut with TEV protease; DDM-purified; reconstituted in POPE:POPG liposomes for transport
T4 sequence (P57758 1-270 S228A): T1 sequence (P57758 1-270) with S228A
The series is described as above. It is filed as binding. As to conditions: 3.2 mM L-cystine, 10 μM protein, pH 7.2, 25 °C.

The target in series [5] is T1, Arabidopsis thaliana cystinosin (plant cystinosin). Put plainly: X-ray crystal structure, […] Å. As to conditions: complex with sybody Syb39; lipidic cubic phase; central binding site, inward-open state.
The test system of series [6] is T5, N[C@@H](CSSC[C@H](N)C(=O)O)C(=O)O.
T5 construct: no GFP; plasma membrane of Xenopus laevis oocytes
Put plainly: two-electrode voltage clamp in Xenopus laevis oocytes. In kind it is cell-based, Homo sapiens. Particulars: pH 5, -40 mV, ND-96, proton-coupled transport.

Substrate in series [7]: N[C@@H](CSSC[C@H](N)C(=O)O)C(=O)O
Described as above. It is filed as cell-based, Homo sapiens. As to conditions: pH 5, -40 mV, ND-96, proton-coupled transport.

In series [8] the target is T6, Arabidopsis thaliana cystinosin (Arabidopsis thaliana, UniProt P57758).
T6 construct: cystinosin from Arabidopsis thaliana, Uniprot P57758; codon-optimised synthetic gene in pDDGFP-Leu2d; also called plant cystinosin; the transporter; source: Saccharomyces cerevisiae BJ5460, purified in DDM (Ni-NTA, TEV cleavage, reverse IMAC, Superdex 200)
Put plainly: crystal structure; apo cystinosin with Nb1 and Nb4, lipidic cubic phase, 2.33 Å, PDB 7ZKZ. Particulars: both partners purified.

In series [9] the target is T7, Arabidopsis thaliana cystinosin (Arabidopsis thaliana, UniProt P57758 1-270).
T7 chain: T1 sequence (P57758 1-270)
Put plainly: BLI.

Substrate in series [10]: N[C@@H](CSSC[C@H](N)C(=O)O)C(=O)O
Put plainly: pyranine proton-flux transport assay in proteoliposomes. In kind it is biochemical, Arabidopsis thaliana. Particulars: pH 7.2 both sides, 25 °C, valinomycin / K+ gradient.

The target in series [11] is T6, Arabidopsis thaliana cystinosin. Put plainly: crystal structure; apo cystinosin with Syb39 and Nb4, lipidic cubic phase (monoolein), 20 °C, 2.65 Å, PDB 7ZK1. As to conditions: both partners purified.

Positions count from the first letter of the chain named. Names may count otherwise.

The term Km denotes the substrate concentration at which the rate is half of its maximum. As a reminder, the Kd is the constant that tells how readily two partners part at equilibrium.

Regarding `N[C@@H](CSS(=O)(=O)C[C@H](N)C(=O)O)C(=O)O` [L-cystine-S,S-dioxide], in series [1], the “transport, % of WT levels at 500 μM” value was ~ 80%. As to `N[C@@H](CSSC[C@H](N)C(=O)O)C(=O)O` [L-cystine], in series [2], the “nanoDSF tryptophan fluorescence quench, DDM-purified protein” value is listed as “it still retains WT levels of L-cystine binding”. Further, the “% loss of binding relative to WT” value in series [3] and in series [4] was ~ 50% in each case. Besides, in series [5], the “X-ray crystal structure, 3.37 Å” value is on record as “we determined the structure of the ligand bound state in complex with Syb39”. As to “human cystinosin (WT) (Homo sapiens; DEL362-367)”, the Km in [6] was found to be 117 ± 2.4 µM.

B1: human cystinosin Δ2-115 variant (ΔN) (Homo sapiens; DEL2-115) (protein)
chain: MLVIRSSAISIINQVIGWIYFVAWSISFYPQVIMNWRRKSVIGLSFDFVALNLTGFVAYSVFNIGLLWVPYIKEQFLLKYPNGVNPVNSNDVFFSLHAVVLTLIIIVQCCLYERGGQRVSWPAIGFLVLAWLFAFVTMIVAAVGVTTWLQFLFCFSYIKLAVTLVKYFPQAYMNFYYKSTEGWSIGNVLLDFTGGSFSLLQMFLQSYNNDQWTLIFGDPTKFGLGVFSIVFDVVFFIQHFCLYRKRP
notes: no GFP; Xenopus laevis oocytes
Take B1: in [7], the Km was 117 ± 28.9 µM.

B2: Nb1 (VHH)
VHH: QVQLVESGGGSAQPGGSLRLSCAVSGSVSELNTMGWFRQAPGKQRELVARITATSDATNYADSVKGRFTISRDNGWNTVYLQSNSLKPEDSAVYYCNVEGAPSWFSGIRSYWGQGTQVTVSS
notes: llama nanobody
B2: the binding result in series [8] was “binds”. The Kd in series [9] is 189 nM.

B3: Nb4 (VHH)
VHH: QVQLVESGGGLVQAGGSLRLSCAASGRTITPISTYVMGWFRQDPGKEREFVASISWNGANTYYADSVKGRFTISRDNAKNTVYLQMNSLKPEDTAVYYCAADPESHVRLRLGVGAYWGRGTQVTVSS
notes: llama nanobody; also called llama derived nanobody (Nb4)
For B3, the binding result in series [8] was “binds”. This molecule showed a Kd in series [9] of 90 nM.

B4: Arabidopsis thaliana cystinosin (plant cystinosin) (Arabidopsis thaliana) (protein)
chain: T1 sequence (P57758 1-270)
notes: codon-optimised gene expressed in Saccharomyces cerevisiae BJ5460 as cleavable C-terminal GFP-His fusion; tag cut with TEV protease; DDM-purified; reconstituted in POPE:POPG liposomes for transport
B4: the Km in series [10] (proton-coupled symport) came to 19 ± 2.9 µM.

B5: Arabidopsis thaliana cystinosin (plant cystinosin) (Arabidopsis thaliana; Y167F) (protein)
chain: T1 sequence (P57758 1-270) with Y167F
notes: as for B4
On to B5, for which the Km in [10] is 73.3 ± 12.8 µM.

B6: sybody 39 (VHH)
VHH: QVQLVESGGGLVQAGGSLRLSCAASGFPVYRNRMHWYRQAPGKEREWVAAIESAGQETHYADSVKGRFTISRDNAKNTVYLQMNSLKPEDTAVYYCNVKDEGWYWQTYDYWGQGTQVTVSA
notes: synthetic nanobody selected from the loop library; also called Syb39
Consider B6, for which the binding result in [11] was “binds”. Also, binding in [9] was characterised by a dissociation constant (Kd) of 760 nM.
